Laboratory results: patent publication USRE48267E1, “Variants of C-type natriuretic peptide” (priority 2009, dated 2020)
Where a SMILES comes first, the peptide text is derived from it. Bridges are numbered along the chain shown (N, C = ends). Where no end group is shown, it is not given here. [ ]: non-standard residue; d: D form. PEO12 = PEO12, 0.6 kDa, monodispersed; PEO24 = PEO24, 1.2 kDa, monodispersed; Tle = CC(C)(C)[C@H](N)C(=O)O

T1: NPR-B (natriuretic peptide receptor B), murine, expressed endogenously on NIH3T3 cells (murine, UniProt Q6VVW5 17-1047)
T1 sequence (looked up): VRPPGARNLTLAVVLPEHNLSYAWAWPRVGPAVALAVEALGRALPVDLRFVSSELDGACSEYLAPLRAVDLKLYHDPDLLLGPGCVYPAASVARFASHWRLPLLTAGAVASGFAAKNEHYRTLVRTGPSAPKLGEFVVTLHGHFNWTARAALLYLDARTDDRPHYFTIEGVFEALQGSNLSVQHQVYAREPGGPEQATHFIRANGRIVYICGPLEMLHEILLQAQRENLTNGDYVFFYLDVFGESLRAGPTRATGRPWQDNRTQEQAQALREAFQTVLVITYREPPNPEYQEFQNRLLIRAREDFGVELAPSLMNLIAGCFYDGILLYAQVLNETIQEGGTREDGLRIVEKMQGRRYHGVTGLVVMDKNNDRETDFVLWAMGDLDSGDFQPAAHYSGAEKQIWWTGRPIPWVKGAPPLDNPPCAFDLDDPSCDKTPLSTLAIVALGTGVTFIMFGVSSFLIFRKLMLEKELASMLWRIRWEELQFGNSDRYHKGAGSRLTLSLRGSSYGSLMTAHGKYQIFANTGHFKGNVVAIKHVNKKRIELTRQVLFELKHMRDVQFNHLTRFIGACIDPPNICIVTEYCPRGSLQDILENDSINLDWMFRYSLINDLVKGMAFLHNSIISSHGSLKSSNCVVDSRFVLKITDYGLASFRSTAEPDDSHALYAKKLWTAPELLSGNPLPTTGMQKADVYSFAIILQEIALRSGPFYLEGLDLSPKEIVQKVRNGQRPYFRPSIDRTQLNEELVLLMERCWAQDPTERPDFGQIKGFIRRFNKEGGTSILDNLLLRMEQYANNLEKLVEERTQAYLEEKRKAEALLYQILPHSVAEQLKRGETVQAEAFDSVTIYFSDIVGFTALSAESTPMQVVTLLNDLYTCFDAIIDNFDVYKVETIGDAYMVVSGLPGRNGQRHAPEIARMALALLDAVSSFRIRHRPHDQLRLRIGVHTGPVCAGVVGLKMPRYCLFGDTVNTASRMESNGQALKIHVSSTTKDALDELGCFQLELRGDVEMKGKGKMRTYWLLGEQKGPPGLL


target: T1, NPR-B (natriuretic peptide receptor B), …; experiment: cell-based or functional assay; details: not given

Row | Molecule | cGMP response rel. to 1 uM CNP22; 10 nM peptide, NIH3T3 cells | cGMP response rel. to 1 uM CNP22; 1 uM peptide, NIH3T3 cells
1 | PEG1K-GANRRGLSRGCFGLKLDRIGSMSGLGC (ends and bridges not checked) [PEG1K-GANRR-CNP22(K4R)] | 15 rel. to 1 uM CNP22 (100) | 56 rel. to 1 uM CNP22 (100)
2 | PEO24-RGLSRGCFGLKLDRIGSMSGLGC (ends and bridges not checked) [PEO24-R-CNP22, K4R] | 15 rel. to 1 uM CNP22 (100) | 75 rel. to 1 uM CNP22 (100)
3 | PEO12-GLSRGCFGLKLDRIGSMSGLGC (ends and bridges not checked) [PEO12-CNP22, K4R] | 13 rel. to 1 uM CNP22 (100) | 44 rel. to 1 uM CNP22 (100)
4 | PEO24-GANSSGLSRGCFGLKLDRIGSMSGLGC (ends and bridges not checked) [PEO24-GANSS-CNP22, K4R] | 8 rel. to 1 uM CNP22 (100) | 46 rel. to 1 uM CNP22 (100)
5 | PEO12-RGLSRGCFGLKLDRIGSMSGLGC (ends and bridges not checked) [PEO12-R-CNP22, K4R] | 23 rel. to 1 uM CNP22 (100) | 93 rel. to 1 uM CNP22 (100)
6 | {PEG 1 kDa}-GLSKGCFGLKLDRIGSMSGLGC (ends and bridges not checked; also: PEG polydispersed) [PEG1K-CNP22] | 15 rel. to 1 uM CNP22 (100) | 68 rel. to 1 uM CNP22 (100)
7 | PEO12-GANSSGLSRGCFGLKLDRIGSMSGLGC (ends and bridges not checked) [PEO12-GANSS-CNP22, K4R] | 8 rel. to 1 uM CNP22 (100) | 52 rel. to 1 uM CNP22 (100)
8 | PEO12-GLSKGCFGLKLDRIGSMSGLGC (ends and bridges not checked) [PEO12-CNP22] | 12 rel. to 1 uM CNP22 (100) | 57 rel. to 1 uM CNP22 (100)
9 | GLSKGCFGLKLDRIGSMSGLGC (not fully specified (N-terminus); ends and bridges not checked) [(PEO12)-Biotin-CNP22] | 19 rel. to 1 uM CNP22 (100) | 81 rel. to 1 uM CNP22 (100)
10 | PEO24-GLSRGCFGLKLDRIGSMSGLGC (ends and bridges not checked) [PEO24-CNP22, K4R] | 15 rel. to 1 uM CNP22 (100) | 56 rel. to 1 uM CNP22 (100)
11 | PEO24-ERGLSRGCFGLKLDRIGSMSGLGC (ends and bridges not checked) [PEO24-ER-CNP22, K4R] | 6 rel. to 1 uM CNP22 (100) | 60 rel. to 1 uM CNP22 (100)
12 | PEO12-GANQQGLSRGCFGLKLDRIGSMSGLGC (ends and bridges not checked) [PEO12-GANQQ-CNP22, K4R] | 30 rel. to 1 uM CNP22 (100) | 78 rel. to 1 uM CNP22 (100)
13 | PEG2K-GANRRGLSRGCFGLKLDRIGSMSGLGC (ends and bridges not checked) [PEG2K-GANRR-CNP22, K4R] | 15 rel. to 1 uM CNP22 (100) | 45 rel. to 1 uM CNP22 (100)
14 | PEO24-GANQQGLSRGCFGLKLDRIGSMSGLGC (ends and bridges not checked) [PEO24-GANQQ-CNP22, K4R] | 16 rel. to 1 uM CNP22 (100) | 73 rel. to 1 uM CNP22 (100)
15 | PEO24-GLSKGCFGLKLDRIGSMSGLGC (ends and bridges not checked) [PEO24-CNP22] | 8 rel. to 1 uM CNP22 (100) | 46 rel. to 1 uM CNP22 (100)
16 | PEO24-GANRRGLSRGCFGLKLDRIGSMSGLGC (ends and bridges not checked) [PEO24-GANRR-CNP22(K4R)] | 28 rel. to 1 uM CNP22 (100) | 82 rel. to 1 uM CNP22 (100)
17 | PEG2K-CFGLKLDRIGSMSGLGC (ends and bridges not checked) [PEG2K-CNP17] | 5 rel. to 1 uM CNP22 (100) | 50 rel. to 1 uM CNP22 (100)
18 | PEO12-ERGLSRGCFGLKLDRIGSMSGLGC (ends and bridges not checked) [PEO12-ER-CNP22, K4R] | 20 rel. to 1 uM CNP22 (100) | 92 rel. to 1 uM CNP22 (100)
19 | PEO12-GANRRGLSRGCFGLKLDRIGSMSGLGC (ends and bridges not checked) [PEO12-GANRR-CNP22(K4R)] | 40 rel. to 1 uM CNP22 (100) | 99 rel. to 1 uM CNP22 (100)

target: Recombinant human NEP (Homo sapiens, UniProt P08473); experiment: in vitro NEP cleavage assay (disappearance of non-cleaved CNP variant); details: not given
Sequence (P08473 whole entry): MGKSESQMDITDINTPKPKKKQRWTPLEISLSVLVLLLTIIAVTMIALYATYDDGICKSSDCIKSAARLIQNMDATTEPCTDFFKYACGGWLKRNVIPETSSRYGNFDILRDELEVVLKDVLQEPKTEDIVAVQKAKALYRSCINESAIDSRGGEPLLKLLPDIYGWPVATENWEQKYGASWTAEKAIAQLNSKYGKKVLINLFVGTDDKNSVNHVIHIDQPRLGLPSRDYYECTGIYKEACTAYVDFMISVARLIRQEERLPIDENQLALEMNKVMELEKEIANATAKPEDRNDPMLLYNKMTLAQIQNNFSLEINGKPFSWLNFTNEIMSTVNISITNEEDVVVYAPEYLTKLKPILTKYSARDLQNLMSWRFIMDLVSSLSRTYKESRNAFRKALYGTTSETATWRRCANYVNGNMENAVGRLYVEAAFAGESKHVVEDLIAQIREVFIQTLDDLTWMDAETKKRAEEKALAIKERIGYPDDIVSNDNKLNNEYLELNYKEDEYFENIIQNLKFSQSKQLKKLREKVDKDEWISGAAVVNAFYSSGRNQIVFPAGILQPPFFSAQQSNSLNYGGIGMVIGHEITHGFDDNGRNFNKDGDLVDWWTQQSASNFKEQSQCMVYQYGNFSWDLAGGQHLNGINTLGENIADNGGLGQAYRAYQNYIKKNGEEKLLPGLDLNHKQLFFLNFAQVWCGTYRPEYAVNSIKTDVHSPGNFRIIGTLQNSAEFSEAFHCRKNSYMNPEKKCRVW
Experimental: To determine the effects of amino acid substitutions, amino acid extensions, backbone modifications, side chain modifications and PEGylation on the susceptibility of CNP variants to neutral endopeptidase (NEP) cleavage, peptide cleavage assays were carried out using an in vitro assay that monitored disappearance of the non-cleaved CNP variant.
Recombinant human NEP (1 ug/mL final concentration) was added to 100 uM CNP variant diluted in 0.1 M Tris, pH 7. The reaction mixture was incubated at 37° C. for various periods of time, and the reaction was quenched with EDTA (10 mM final) followed by heat denaturation. The reaction mixture was reduced and then the reaction products were analyzed using HPLC and mass spectroscopy. The half-life of the CNP variant was calculated based on the disappearance of intact CNP variant over time.

Row | Molecule | resistance to cleavage at the Cys6-Phe7 bond relative to wtCNP22 | resistance to NEP cleavage (in words)
20 | CC[C@H](C)[C@@H]1NC(=O)[C@H](CCCNC(=N)N)NC(=O)[C@H](CC(=O)O)NC(=O)[C@H](CC(C)C)NC(=O)[C@H](CCCCN)NC(=O)[C@H](CC(C)C)NC(=O)[C@H](C(C)(C)C)NC(=O)[C@H](Cc2ccccc2)NC(=O)[C@@H](NC(=O)CNC(=O)[C@H](CCCCN)NC(=O)[C@H](CO)NC(=O)[C@H](CC(C)C)NC(=O)CN)CSSC[C@@H](C(=O)O)NC(=O)CNC(=O)[C@H](CC(C)C)NC(=O)CNC(=O)[C@H](CO)NC(=O)[C@H](CCSC)NC(=O)[C@H](CO)NC(=O)CNC1=O [Analog F] (H-GLSKGCF[Tle]LKLDRIGSMSGLGC-OH; disulfide 6-22) | resistance or improved resistance | 
21 | CC[C@H](C)[C@@H]1NC(=O)[C@H](CCCNC(=N)N)NC(=O)[C@H](CC(=O)O)NC(=O)[C@H](CC(C)C)NC(=O)[C@H](CCCCN)NC(=O)[C@H](CC(C)C)NC(=O)CNC(=O)[C@H](Cc2ccccc2)NC(=O)[C@@H](NC(=O)CNC(=O)[C@H](CCCNC(=N)N)NC(=O)[C@H](CO)NC(=O)[C@H](CC(C)C)NC(=O)CNC(=O)[C@H](CCCNC(=N)N)NC(=O)[C@H](CCCNC(=N)N)NC(=O)[C@H](CC(N)=O)NC(=O)[C@H](C)NC(=O)CN)CSSC[C@@H](C(=O)O)NC(=O)CNC(=O)[C@H](CC(C)C)NC(=O)CNC(=O)[C@H](CO)NC(=O)[C@H](CCSC)NC(=O)[C@H](CO)NC(=O)CNC1=O [Analog AY] (H-GANRRGLSRGCFGLKLDRIGSMSGLGC-OH; disulfide 11-27) |  | same lability to NEP hydrolysis as CNP22

same assay, conditions: pH 7

Row | Molecule | NEP Cleavage (t1/2, min)
22 | PEG20K-CNP22: CNP22 conjugated at the N-terminus to polydispersed PEG20K | >>160 min
